This assay has as its target Kluyveromyces marxianus GCN2 histidyl-tRNA synthetase-like (HRSL) domain, residues 996-1,511 (Kluyveromyces marxianus). Put plainly: SEC. (SEC sorts molecules by how far they enter the pores of the column.)

Broadly, the stoichiometry N is the number of molecules, sites or subunits per partner or assembly.

The substance “Kluyveromyces marxianus GCN2 histidyl-tRNA synthetase-like (HRSL) domain, residues 996-1,511 (domain or fragment)” registered a stoichiometry N of 2.

(Values after paper PMC11606652.)
